Measured values taken from article PMC2064341 (The Journal of Cell Biology, 2006).

Biological target: T1, 6-His-tagged RLIP76ΔRBD (human, UniProt Q15311 1-392)
T1 sequence: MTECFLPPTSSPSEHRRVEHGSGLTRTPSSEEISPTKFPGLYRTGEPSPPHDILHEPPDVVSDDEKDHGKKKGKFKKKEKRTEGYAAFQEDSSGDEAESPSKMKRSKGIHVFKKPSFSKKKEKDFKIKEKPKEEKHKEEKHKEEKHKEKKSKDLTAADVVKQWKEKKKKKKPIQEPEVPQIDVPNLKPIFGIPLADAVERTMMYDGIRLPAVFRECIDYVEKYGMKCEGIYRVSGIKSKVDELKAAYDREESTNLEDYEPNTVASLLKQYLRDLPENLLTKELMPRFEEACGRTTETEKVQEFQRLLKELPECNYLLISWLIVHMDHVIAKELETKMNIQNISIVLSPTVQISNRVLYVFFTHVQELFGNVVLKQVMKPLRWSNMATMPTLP
Assay: pull-down

B1: GST–R-Ras(wt) (natural protein, human, UniProt P10301 1-218, looked up)
chain: MSSGAASGTGRGRPRGGGPGPGDPPPSETHKLVVVGGGGVGKSALTIQFIQSYFVSDYDPTIEDSYTKICSVDGIPARLDILDTAGQEEFGAMREQYMRAGHGFLLVFAINDRQSFNEVGKLFTQILRVKDRDDFPVVLVGNKADLESQRQVPRSEASAFGASHHVAYFEASAKLRLNVDEAFEQLVRAVRKYQEQELPPSPPSAPRKKGGGCPCVLL
B1: binds.
